Measurements published in patent US20140037648A1 (HUMABS BIOMED, published 2014).

Key:
[1] = biological target: T1, stabilized form of the full-length pre-fusion RSV F protein (RSV); experiment: surface plasmon resonance
T1 construct: also called pre-fusion F protein; RSV F pre-fusion recombinant protein

[2] = biological target: F protein of BRSV strain RB94 (BRSV (strain RB94)); experiment: cell-based or functional assay
[3] = biological target: F protein of PVM strain 15 (PVM (strain 15)); experiment: cell-based or functional assay
[4] = biological target: F protein of RSV WV/14617/85 (B, Huntington West Virginia, 1985; B/14617/85) (RSV (strain WV/14617/85)); experiment: cell-based or functional assay
[5] = biological target: F protein of RSV 9320 (B, Massachusetts US, 1977; B/9320/77) (RSV (strain 9320)); experiment: cell-based or functional assay
[6] = biological target: F protein of RSV 18537 (B, Washington District of Columbia US, 1962; B/18537/62) (RSV (strain 18537), UniProt P13843 26-574); experiment: cell-based or functional assay
[7] = biological target: T2, F protein of RSV strain A2 (A, 1961 Australia; A/A2/61) (RSV (strain A2), UniProt P03420 26-574); experiment: cell-based or functional assay
[8] = biological target: T2, F protein of RSV strain A2 (A, 1961 …); experiment: cell-based or functional assay; remark: listed apart in the source

B1: HMB3210v3 (antibody, V domains shown)
VH: EVQLVESGGGLVKPGGSLRLSCAASGFTFSSYSMNWVRQAPGKGLEWVSSISASSSYSDYADSAKGRFTISRDNAKTSLFLQMNSLRAEDTAIYFCARARATGYSSITPYFDIWGQGTLVTVSS
VL: QSVVTQPPSVSGAPGQRVTISCTGSSSNIGAGYDVHWYQQLPGTAPKLLIYDNNNRPSGVPDRFSASKSGTSASLAITGLQAEDEADYYCQSYDRSLSGVFGTGTKVTVL
notes: also called HMB3210 variant 3
- Kd [1]: 0.1 nM
- IC50, neutralization of BRSV strain RB94 [2]: 0.01 µg/mL
- IC50, neutralization of PVM strain 15 [3]: 0.1 µg/mL

B2: Palivizumab (antibody, V domains shown)
VH: QVTLRESGPALVKPTQTLTLTCTFSGFSLSTSGMSVGWIRQPPGKALEWLADIWWDDKKDYNPSLKSRLTISKDTSKNQVVLKVTNMDPADTATYYCARSMITNWYFDVWGAGTTVTVSS
VL: DIQMTQSPSTLSASVGDRVTITCKCQLSVGYMHWYQQKPGKAPKLLIYDTSKLASGVPSRFSGSGSGTEFTLTISSLQPDDFATYYCFQGSGYPFTFGGGTKLEIK
- Neutralization IC50 [4]: 0.129 µg/mL
- Neutralization IC50 [5]: 0.069 µg/mL
- Neutralization IC50 [6]: 0.143 µg/mL
- Neutralization IC50 [7]: 0.617 µg/mL
- IC50 (ng/ml), microneutralization [8]: 524 ng/mL
